This is an account of results in paper PMC7962585 (Cell, 2021).

This experiment has as its target full-length wild-type SARS-CoV-2 S (Severe acute respiratory syndrome …, UniProt P0DTC2). Kind of experiment: flow cytometry on cells. In general terms: A flow cytometer gives signals particle by particle.

B1: S2L28 IgG1 (antibody, V domains shown)
VH: EVQLVESGGGLVNPGGSLRLSCAASGFTFSDYTIHWVRQAPGKGLEWVSSISSSSNYIYYADSVKGRFTISRDNAKNSLSLQMNSLRAEDTAVYYCARDGNAYKWLLAENVRFDYWGQGTLVTVSS
VL: VTQPASVSGSPGQSITISCTGTSSDVGGYNYVSWYQQHPGKAPKLMIYDVSDRPSGVSNRFSGSKSGNTASLTISGLQAEDEADYYCSSYTSSSTPNWVFGGGTKLT
For the molecule B1, the binding result is given as “binds”.

B2: S2X333 IgG1 (antibody, V domains shown)
VH: VQLVESGGGVVQPGRSLRLSCAASGFTFSNYGMHWVRQAPGKGLEWVAVIWYDGSNKFYADSVKGRFTISRDNSKNSLYLQMNSLRAEDTAVYFCARAFPDSSSWSGFTIDYWGQGTLVTV
VL: YELTQPPSVSTARITCGGNNIERKSVHWCQQKPGQAPALVVYDDSDRPSGIPERFSGSNSGNTATLTISRVEAGDEADYYCQVWDSGSDQVIFGGGTKLT
Regarding B2, the binding result is “binds”.

B3: S2M28 IgG1 (antibody, V domains shown)
VH: EVQLVESGGGVVQPGRSLRLSCAASGFTFSSYGMHWVRQAPGKGLEWVTVIWYDGSNRYYADSVKGRFTISRDNSKNTLYLQMDSLRAEDTAVYYCARAVAGEWYFDYWGQGTLVTVSS
VL: SYELTQPPSVSVSPGQTARITCSGDALAKHYAYWYRQKPGQAPVLVIYKDSERPSGIPERFSGSSSGTTVTLTISGVQAEDEADYYCQSADSIGSSWVFGGGTKLTVL
In the case of B3, the binding result is recorded as “binds”.
